Tests used:
[1] = target: Recombinant Human Axl Protein Axl-tag 5 (human) (UniProt P30530); assay: competition ELISA on immobilized Axl-tag 5; unlabeled antibody 50 ug/mL; competitor Biot-v77-2a37.1 (1 ug/mL)
[2] = target: Recombinant Human Axl Protein Axl-tag 5 (human) (UniProt P30530); assay: competition ELISA on immobilized Axl-tag 5; unlabeled antibody 50 ug/mL; competitor Biot-v77-2a37.1 (1 ug/mL), whose signal is read
[3] = target: Recombinant Human Axl Protein Axl-tag 5 (human) (UniProt P30530); assay: competition ELISA on immobilized Axl-tag 5; unlabeled antibody 50 ug/mL; competitor Biot-M77-297b81.1.1 (1 ug/mL), whose signal is read
[4] = target: Recombinant Human Axl Protein Axl-tag 5 (human) (UniProt P30530); assay: competition ELISA on immobilized Axl-tag 5; unlabeled antibody 50 ug/mL; competitor Biot-M77-297b81.1.1 (1 ug/mL)

UniProt P30530, sequence (P30530 26-451): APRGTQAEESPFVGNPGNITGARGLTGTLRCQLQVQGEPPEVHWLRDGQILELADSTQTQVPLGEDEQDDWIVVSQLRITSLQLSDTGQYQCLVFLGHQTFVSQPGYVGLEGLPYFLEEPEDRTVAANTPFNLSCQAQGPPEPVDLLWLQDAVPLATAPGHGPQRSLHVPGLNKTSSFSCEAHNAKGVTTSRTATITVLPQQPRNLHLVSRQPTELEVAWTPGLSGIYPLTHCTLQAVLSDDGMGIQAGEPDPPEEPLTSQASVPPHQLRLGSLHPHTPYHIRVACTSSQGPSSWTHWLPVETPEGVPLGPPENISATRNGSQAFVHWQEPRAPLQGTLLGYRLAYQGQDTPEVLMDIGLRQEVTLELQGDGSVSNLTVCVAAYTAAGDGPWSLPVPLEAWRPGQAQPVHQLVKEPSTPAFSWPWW

Cell Signaling rabbit monoclonal anti-AXL antibody AXL(C89E7)
% competition [1]: 3.3% | OD (650 nm) [2]: 1.81 OD (650 nm) | OD (650 nm) [3]: 2.13 OD (650 nm) | % competition [4]: 1.5%

From US20240117055A1
